Source: PMC9865026 (Pathogens, 2022)

Experiments:
Assay in all cases: ELISA
Details in all cases: both partners purified
[1] = biological target: A/New Caledonia/20/1999 (NC H1N1) recombinant hemagglutinin (HA) (Influenza A virus A/New …, UniProt Q6WG00, strain)
[2] = biological target: A/California/07/2009 (pH1N1) recombinant hemagglutinin (HA) (Influenza A virus A/California/07/2009 …, UniProt C3W5X2, strain)
[3] = biological target: A/Perth/16/2009 (H3N2P) recombinant hemagglutinin (HA) (Influenza A virus A/Perth/16/2009 (H3N2), UniProt C6KNH7, strain)
[4] = biological target: A/Aichi/2/68 (H3N2A) recombinant hemagglutinin (HA) (Influenza A virus A/Aichi/2/1968 …, UniProt T2HNI1)

Measured: binding result

B1: CR6261 human IgG1 possessing a mouse IgG1 hinge (antibody, V domains shown)
VH: EVQLVESGAEVKKPGSSVKVSCKASGGPFRSYAISWVRQAPGQGPEWMGGIIPIFGTTKYAPKFQGRVTITADDFAGTVYMELSSLRSEDTAMYYCAKHMGYQVRETMDVWGKGTTVTVSS
VL: QSVLTQPPSVSAAPGQKVTISCSGSSSNIGNDYVSWYQQLPGTAPKLLIYDNNKRPSGIPDRFSGSKSGTSATLGITGLQTGDEANYYCATWDRRPTAYVVFGGGTKLTVL
notes: also called human IgG1 with a mouse IgG1 hinge; copies: 2 + 2
binds: [1] | [2]

B2: CR6261 human IgG4 (antibody, V domains shown)
VH: EVQLVESGAEVKKPGSSVKVSCKASGGPFRSYAISWVRQAPGQGPEWMGGIIPIFGTTKYAPKFQGRVTITADDFAGTVYMELSSLRSEDTAMYYCAKHMGYQVRETMDVWGKGTTVTVSS
VL: QSVLTQPPSVSAAPGQKVTISCSGSSSNIGNDYVSWYQQLPGTAPKLLIYDNNKRPSGIPDRFSGSKSGTSATLGITGLQTGDEANYYCATWDRRPTAYVVFGGGTKLTVL
notes: also called CR6261 IgG4; source: HEK-293, transfected (pTT5), purified from cell culture supernatant (MabSelect); copies: 2 + 2
binds: [1] | [2]

B3: F045-092 human IgG4 (antibody, V domains shown)
VH: EVQLVESGAEVKKPGSSVKVSCRASGTFYKYAINWVRQAPGQGLEWMGGIIPFFGTTNYAQKFQGRLTITADGSTNTAYMQLDSLRSEDTAVYYCAGPSITESHYCLDCAAKDYYYGLDVWGQGTTVTVSS
VL: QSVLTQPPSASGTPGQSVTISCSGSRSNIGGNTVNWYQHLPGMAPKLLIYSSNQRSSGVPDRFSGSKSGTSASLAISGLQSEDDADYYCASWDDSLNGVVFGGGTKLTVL
notes: also called F045-092 IgG4; source: HEK-293, transfected (pTT5), purified from cell culture supernatant (MabSelect); copies: 2 + 2
binds: [3] | [4]

B4: F045-092 human IgG1 with a mouse IgG1 hinge (antibody, V domains shown)
VH: EVQLVESGAEVKKPGSSVKVSCRASGTFYKYAINWVRQAPGQGLEWMGGIIPFFGTTNYAQKFQGRLTITADGSTNTAYMQLDSLRSEDTAVYYCAGPSITESHYCLDCAAKDYYYGLDVWGQGTTVTVSS
VL: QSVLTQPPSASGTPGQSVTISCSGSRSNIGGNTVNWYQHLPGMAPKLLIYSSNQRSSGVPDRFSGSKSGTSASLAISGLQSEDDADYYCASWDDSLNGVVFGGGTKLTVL
notes: also called human IgG1 with a mouse hinge; copies: 2 + 2
binds: [3] | [4]

B5: FI6 human IgG1 with a mouse IgG1 hinge (antibody, V domains shown)
VH: QVQLVESGGGVVQPGRSLRLSCAASGFTFSTYAMHWVRQAPGKGLEWVAVISYDANYKYYADSVKGRFTISRDNSKNTLYLQMNSLRAEDTAVYYCAKDSQLRSLLYFEWLSQGYFDYWGQGTLVTVSS
VL: not shown
notes: also called VR-analogous human IgG1 with a mouse IgG1 hinge (FI6); copies: 2 + 2
binds: all assays above

B6: FI6 human IgG4 (antibody, V domains shown)
VH: QVQLVESGGGVVQPGRSLRLSCAASGFTFSTYAMHWVRQAPGKGLEWVAVISYDANYKYYADSVKGRFTISRDNSKNTLYLQMNSLRAEDTAVYYCAKDSQLRSLLYFEWLSQGYFDYWGQGTLVTVSS
VL: not shown
notes: also called VR-analogous human IgG4 (FI6); source: HEK-293, transfected (pTT5), purified from cell culture supernatant (MabSelect); copies: 2 + 2
binds: all assays above

B7: FI6 mouse IgG2a (antibody, V domains shown)
VH: QVQLVESGGGVVQPGRSLRLSCAASGFTFSTYAMHWVRQAPGKGLEWVAVISYDANYKYYADSVKGRFTISRDNSKNTLYLQMNSLRAEDTAVYYCAKDSQLRSLLYFEWLSQGYFDYWGQGTLVTVSS
VL: not shown
notes: also called VR-analogous mouse IgG2a (FI6); source: HEK-293, transfected (pTT5), purified from cell culture supernatant (Protein G); copies: 2 + 2
binds: all assays above

B8: FI6 mouse IgG1 (antibody, V domains shown)
VH: QVQLVESGGGVVQPGRSLRLSCAASGFTFSTYAMHWVRQAPGKGLEWVAVISYDANYKYYADSVKGRFTISRDNSKNTLYLQMNSLRAEDTAVYYCAKDSQLRSLLYFEWLSQGYFDYWGQGTLVTVSS
VL: not shown
notes: also called VR-analogous mouse IgG1 (FI6); source: HEK-293, transfected (pTT5), purified from cell culture supernatant (Protein G); copies: 2 + 2
binds: all assays above
